According to PMC10626543, “Native lamin A/C proteomes and novel partners from heart and skeletal muscle in a mouse chronic inflammation model of human frailty” (Frontiers in Cell and Developmental Biology, 2023):

T1: recombinant lamin A tail (residues 385–646 of human mature lamin A) (human, UniProt P02545 385-646)
T1 construct: lamin A, human, residues 385-646 of mature lamin A: flexible linker 385-429, Ig-fold 430-544, disordered 545-646; also called lamin A tails; LamA; not shown: His tag, C-terminal, kept
T1 sequence (looked up): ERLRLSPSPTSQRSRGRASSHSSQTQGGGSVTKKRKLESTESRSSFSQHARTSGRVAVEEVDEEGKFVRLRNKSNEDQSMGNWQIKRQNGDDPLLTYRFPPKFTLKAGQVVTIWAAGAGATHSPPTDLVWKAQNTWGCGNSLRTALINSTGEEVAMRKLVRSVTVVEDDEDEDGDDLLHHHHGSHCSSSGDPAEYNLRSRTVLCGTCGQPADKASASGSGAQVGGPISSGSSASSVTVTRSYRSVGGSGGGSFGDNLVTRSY

B1: Perm1 peptide h16 (aa 529–548) (peptide)
peptide: QTATGAHGGPGAWEAVAVGP
notes: Perm1, human, residues 529-548; source: synthetic peptide, on cellulose array
B2: Perm1 peptide j2 (aa 737–756) (peptide)
peptide: FVAFATWAVRTSDPHTPDAW
notes: Perm1, human, residues 737-756; source: synthetic peptide, on cellulose array
B3: prelamin A peptide X1 (aa 499–518) (peptide)
peptide: AAGAGATHSPPTDLVWKAQN
notes: prelamin A, human, residues 499-518 (Ig-fold); source: synthetic peptide, on cellulose array
B4: AldoA peptide r18 (aa 295–314) (peptide)
peptide: PWALTFSYGRALQASALKAW
notes: AldoA, human, residues 295-314; source: synthetic peptide, on cellulose array
B5: Lmcd1 peptide v17 (aa 309–328) (peptide)
peptide: SGCDEIIFAEDYQRVEDLAW
notes: Lmcd1, human, residues 309-328 (second LIM domain); source: synthetic peptide, on cellulose array
B6: Perm1 peptide i4 (aa 593–612) (peptide)
peptide: EENEEAEAAAAGQDPAGVQW
notes: Perm1, human, residues 593-612; source: synthetic peptide, on cellulose array
B7: prelamin A peptide W14 (aa 450–469) (peptide)
peptide: KFVRLRNKSNEDQSMGNWQI
notes: prelamin A, human, residues 450-469 (Ig-fold); source: synthetic peptide, on cellulose array
B8: Tmem38A peptide k10 (aa 155–174) (peptide)
peptide: KGSGVALMSNFEQLLRGVWK
notes: Tmem38a, human, residues 155-174; source: synthetic peptide, on cellulose array
B9: AldoA peptide r19 (aa 302–321) (peptide)
peptide: YGRALQASALKAWGGKKENL
notes: AldoA, human, residues 302-321; source: synthetic peptide, on cellulose array
B10: Tmem38A peptide j13 (aa 36–55) (peptide)
peptide: YLKYEPGAVELSRRHPIASW
notes: Tmem38a, human, residues 36-55; source: synthetic peptide, on cellulose array
B11: prelamin A peptide W19 (aa 485–504) (peptide)
peptide: PKFTLKAGQVVTIWAAGAGA
notes: prelamin A, human, residues 485-504 (Ig-fold); source: synthetic peptide, on cellulose array
B12: Tmem38A peptide k16 (aa 197–216) (peptide)
peptide: FTLQQTRWLPVSKASLIFIF
notes: Tmem38a, human, residues 197-216; source: synthetic peptide, on cellulose array
B13: Perm1 peptide h5 (aa 441–460) (peptide)
peptide: SSGLVSTPVPRADAAGLAWP
notes: Perm1, human, residues 441-460; source: synthetic peptide, on cellulose array
B14: AldoA peptide r20 (aa 309–328) (peptide)
peptide: SALKAWGGKKENLKAAQEEY
notes: AldoA, human, residues 309-328; source: synthetic peptide, on cellulose array

The binders below were run against T1, recombinant lamin A tail (residues …) (assay: peptide or protein array; synthetic 20-mer peptides (7-residue offset) on cellulose; probed 3 h at room temperature with 190 nM His-tagged lamin A tail in casein blocking solution (TBS-T, sucrose, pH 7.0); bound lamin detected with anti-lamin A/C clone 14 and AP-conjugated secondary antibody; two experiments, each with an antibodies-only control). Settings: both partners purified.

Row | binding result | Binder
1 | binds | B1
2 | binds | B2
3 | binds | B3
4 | binds | B4
5 | binds | B5
6 | binds | B6
7 | binds | B7
8 | binds | B8
9 | binds | B9
10 | binds | B10
11 | binds | B11
12 | binds | B12
13 | binds | B13
14 | binds | B14
